± gives the standard deviation of the averaged measurements.
B1: library; a variant is named by its letters at N, in order (parent)
chain: GCUGUCACCGGUGCUUGGUACGUUAUAUUCAGCCGGUCUGAUGAGUCUNNNNNNAGACGAAACAGC

Legend:
(6R,S)-folinic acid [1] = variants of: B1; experiment: FACS-Seq fitted mean relative fluorescence mCherry/BFP without ligand (log10 relative fluorescence); HEK293T overexpressing SLC46A1; higher = higher reporter protein expression; settings: without (6R,S)-folinic acid; ligand present: no
Summary of the method: (§1)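 To measure fluorescence, a normal distribution was fitted to read counts across sorted bins. The reporter libraries were HEK293T cells transduced by lentivirus with mCherry under ribozyme-switch control and an EF1α-BFP marker, enriched and then kept with or without ligand for 48 h. Sorting used 6 mCherry/BFP bins, and bin genomic DNA was PCR-amplified and sequenced on MiSeq. Fitted means of log10(mCherry/BFP) were scaled to five spiked-in control ribozymes.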

(6R,S)-folinic acid [2] = variants of: B1; experiment: normalized RNA/DNA level without ligand (relative to sTRSVctl = 100) (log10 (% of sTRSVctl)); HEK293T overexpressing SLC46A1; higher = less ribozyme self-cleavage, higher mRNA level; settings: without (6R,S)-folinic acid; ligand present: no
Summary of the method: (§2)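 Total RNA, extracted with EDTA 72 h after HEK293T cells were transfected with 4 µg per 6-well well of reporter-linked ribozyme switch library plasmids, was reverse-transcribed, amplified, barcoded and sequenced. Ligand, if used, was added 1 h before transfection. RNA level was derived from RNA reads divided by DNA reads and normalized to a spiked-in non-cleaving sequence or to the top sequences. This was multiplied by 100 and log10-transformed, with the top set of 25 sequences and a ≥100 DNA read minimum.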

(6R,S)-folinic acid [3] = variants of: B1; experiment: FACS-Seq fitted mean relative fluorescence mCherry/BFP with ligand (log10 relative fluorescence); HEK293T overexpressing SLC46A1; ligand concentration (+) FACS-Seq: 6 mM; higher = higher reporter protein expression; settings: with (6R,S)-folinic acid; ligand present: yes
Summary of the method: as §1

(6R,S)-folinic acid [4] = variants of: B1; experiment: normalized RNA/DNA level with ligand (relative to sTRSVctl = 100) (log10 (% of sTRSVctl)); HEK293T overexpressing SLC46A1; ligand concentration (+) RNA-Seq: 6 mM; higher = less ribozyme self-cleavage, higher mRNA level; settings: with (6R,S)-folinic acid; ligand present: yes
Summary of the method: as §2

Variant	FACS-Seq fitted mean (log10) ((6R,S)-folinic acid [1])	normalized RNA/DNA level without ligand (log10) ((6R,S)-folinic acid [2])	FACS-Seq fitted mean (log10) ((6R,S)-folinic acid [3])	normalized RNA/DNA level with ligand (log10) ((6R,S)-folinic acid [4])
GUAUAG	0.256 ± 0.031	1.94 ± 0.0061	0.546 ± 0.096	2.01 ± 0.048
UUCAUG	0.548 ± 0.083	1.86 ± 0.014	0.703 ± 0.25	1.97 ± 0.067
UUAUUG	0.469 ± 0.069	1.82 ± 0.035	0.551 ± 0.16	1.97 ± 0.038
UUAUUU	0.415 ± 0.024	1.982 ± 0.0056	0.569 ± 0.26	2 ± 0.022
UUGCUA	0.353 ± 0.027	2.002 ± 0.0079	0.377 ± 0.051	2.04 ± 0.026
CUGGAA	0.184 ± 0.035	1.9175 ± 0.00021	0.243 ± 0.021	1.97 ± 0.028
CUGGAU	0.302 ± 0.025	1.966 ± 0.018	0.179 ± 0.028	2.02 ± 0.022
CUCGAG	0.167 ± 0.042	1.96 ± 0.02	0.115 ± 0.2	1.977 ± 0.012
AUGCGG	0.0258 ± 0.11	1.939 ± 0.013	0.185 ± 0.22	2.02 ± 0.043
AUGCGA	0.422 ± 0.019	1.979 ± 0.00081	0.569 ± 0.15	2.01 ± 0.035
AUGCGU	0.523 ± 0.16	1.951 ± 0.016	0.63 ± 0.3	1.99 ± 0.031
CUGAGA	-0.345 ± 0.055	1.985 ± 0.0047	-0.472 ± 0.062	1.99 ± 0.035
UUCUGG	0.429 ± 0.029	1.887 ± 0.0036	0.696 ± 0.12	2.03 ± 0.037
UUCUGC	0.411 ± 0.14	2.049 ± 0.02	0.336 ± 0.038	2.04 ± 0.052
GUGGCC	0.354 ± 0.0094	2.02 ± 0.029	0.72 ± 0.12	2.05 ± 0.023
GUGGCA	0.0901 ± 0.037	2.011 ± 0.0084	0.458 ± 0.2	2.02 ± 0.042
GUGGGC	0.414 ± 0.04	1.788 ± 0.0052	0.738 ± 0.17	1.98 ± 0.024
GUGGGA	-0.679 ± 0.016	2.018 ± 0.0036	-0.94 ± 0.38	2.03 ± 0.025
AUAUUC	-0.738 ± 0.81	2.035 ± 0.019	-1.5 ± 0.9	2.031 ± 0.01
AUAUUG	0.176 ± 0.067	1.896 ± 0.0041	0.136 ± 0.13	1.97 ± 0.011
AUGGGG	0.139 ± 0.026	1.841 ± 0.0025	0.258 ± 0.36	2.03 ± 0.062
AUGGGA	0.263 ± 0.012	1.925 ± 0.015	0.269 ± 0.049	2.01 ± 0.03
CUAUGU	0.286 ± 0.071	2.01 ± 0.023	0.152 ± 0.23	2.023 ± 0.014
UUCGGC	0.0747 ± 0.019	2.043 ± 0.013	-0.314 ± 0.0053	2.04 ± 0.054

Variant	FACS-Seq fitted mean (log10) ((6R,S)-folinic acid [1])	normalized RNA/DNA level without ligand (log10) ((6R,S)-folinic acid [2])	FACS-Seq fitted mean (log10) ((6R,S)-folinic acid [3])	normalized RNA/DNA level with ligand (log10) ((6R,S)-folinic acid [4])
GUGCGU	0.436 ± 0.15	1.9915 ± 0.0017	0.582 ± 0.16	2.008 ± 0.017
GUGCGA	0.238 ± 0.11	1.999 ± 0.014	0.278 ± 0.38	2.02 ± 0.044
GUGGUG	0.383 ± 0.21	1.92 ± 0.024	0.306 ± 0.32	2 ± 0.043
GUGGUU	0.311 ± 0.089	2.014 ± 0.0041	0.443 ± 0.013	2.02 ± 0.037
AUCGGA	0.397 ± 0.17	1.99 ± 0.0013	0.345 ± 0.48	2 ± 0.039
AUCUUA	0.327 ± 0.012	2.042 ± 0.0064	0.337 ± 0.14	2.03 ± 0.043
AUCUUG	0.284 ± 0.023	1.952 ± 0.0043	0.288 ± 0.16	2.01 ± 0.028
CUGAAA	0.38 ± 0.12	1.986 ± 0.0076	0.578 ± 0.071	2 ± 0.014
AUGACU	0.261 ± 0.032	2.01 ± 0.025	0.313 ± 0.27	2.02 ± 0.03
AUGACA	0.187 ± 0.069	1.987 ± 0.0094	0.323 ± 0.037	2 ± 0.032
AUGACG	0.318 ± 0.062	1.941 ± 0.0037	0.394 ± 0.14	2.02 ± 0.022
UUCACU	-0.112 ± 0.034	2.059 ± 0.0067	-0.112 ± 0.28	2.041 ± 0.02
GUGAAA	-0.0108 ± 0.075	1.956 ± 0.0062	0.313 ± 0.017	1.981 ± 0.016
GUGAAU	0.0592 ± 0.055	1.944 ± 0.0083	0.217 ± 0.099	2 ± 0.043
GUGAAG	0.207 ± 0.012	1.9352 ± 0.0013	0.436 ± 0.27	2.02 ± 0.043
GUCGUA	0.666 ± 0.21	2.0187 ± 0.00087	0.497 ± 0.34	2.01 ± 0.025
AUAUGG	0.12 ± 0.066	1.867 ± 0.0088	0.307 ± 0.19	2 ± 0.034
AUAUGU	0.367 ± 0.12	1.9129 ± 0.00064	0.417 ± 0.46	2.0205 ± 0.0011
AUAUGA	0.209 ± 0.013	1.976 ± 0.004	0.342 ± 0.096	2.01 ± 0.034
UUCCUG	0.284 ± 0.092	1.96 ± 0.027	0.493 ± 0.079	2.03 ± 0.024
GUCGAC	0.479 ± 0.017	1.965 ± 0.0058	0.62 ± 0.022	2.025 ± 0.0097
GUCGAU	0.179 ± 0.051	1.986 ± 0.015	0.225 ± 0.17	2.02 ± 0.026
GUCAGG	0.338 ± 0.065	1.938 ± 0.015	0.29 ± 0.076	1.974 ± 0.018
AUCUGG	0.349 ± 0.012	1.92 ± 0.023	0.27 ± 0.019	2.02 ± 0.042

Variant	FACS-Seq fitted mean (log10) ((6R,S)-folinic acid [1])	normalized RNA/DNA level without ligand (log10) ((6R,S)-folinic acid [2])	FACS-Seq fitted mean (log10) ((6R,S)-folinic acid [3])	normalized RNA/DNA level with ligand (log10) ((6R,S)-folinic acid [4])
UUCCGA	-0.0446 ± 0.086	1.997 ± 0.002	-0.101 ± 0.13	1.999 ± 0.018
CUCUUA	0.211 ± 0.012	2.0064 ± 0.0006	0.143 ± 0.3	2 ± 0.03
UUGAGG	0.275 ± 0.1	1.86 ± 0.025	0.336 ± 0.18	2.006 ± 0.0026
UUGAGA	0.325 ± 0.084	1.841 ± 0.013	0.468 ± 0.01	1.993 ± 0.0082
UUAUCU	0.453 ± 0.099	2.0125 ± 0.0014	0.133 ± 0.1	2.03 ± 0.0072
GUCUCG	0.378 ± 0.032	1.997 ± 0.0037	0.197 ± 0.26	2.003 ± 0.013
GUCCGA	0.497 ± 0.025	2.017 ± 0.0041	0.383 ± 0.061	2.007 ± 0.0092
GUCCGG	-0.054 ± 0.18	2.042 ± 0.011	-0.0351 ± 0.41	2.05 ± 0.063
AUCGAC	0.0463 ± 0.0065	2.041 ± 0.0079	0.0476 ± 0.024	2.01 ± 0.03
AUCGAG	0.076 ± 0.01	1.813 ± 0.017	0.217 ± 0.22	2 ± 0.032
CUAUAG	0.0808 ± 0.1	1.915 ± 0.017	0.35 ± 0.15	2 ± 0.029
UUCAAG	0.372 ± 0.12	1.85 ± 0.014	0.562 ± 0.035	2.01 ± 0.034
UUCAAU	0.465 ± 0.017	2.004 ± 0.013	0.748 ± 0.3	1.98 ± 0.052
UUCAAA	0.198 ± 0.18	1.972 ± 0.0074	0.0558 ± 0.029	2.009 ± 0.019
CUCAAU	0.0874 ± 0.13	1.97 ± 0.036	0.0541 ± 0.42	1.971 ± 0.011
UUGUAG	0.271 ± 0.0067	1.866 ± 0.0056	0.397 ± 0.18	1.992 ± 0.0089
GUGUAC	-0.753 ± 0.24	1.942 ± 0.0035	-0.684 ± 0.34	2.005 ± 0.0037
GUGUAG	0.435 ± 0.018	1.899 ± 0.0022	0.514 ± 0.18	1.998 ± 0.016
GUGUAA	0.21 ± 0.21	1.957 ± 0.0042	0.383 ± 0.18	2 ± 0.041
AUGGUG	0.433 ± 0.026	1.786 ± 0.011	0.485 ± 0.12	2.01 ± 0.024
AUGGUA	0.132 ± 0.069	1.91 ± 0.0083	0.165 ± 0.17	1.98 ± 0.038
AUGGUU	0.245 ± 0.097	1.98 ± 0.026	0.136 ± 0.14	2.01 ± 0.027
CUCCGC	0.443 ± 0.04	2.042 ± 0.0057	0.294 ± 0.047	1.985 ± 0.019
